# T1: Mmi1 YTH domain (longer construct) (Schizosaccharomyces pombe, UniProt O74958 326-488)
# T1 sequence: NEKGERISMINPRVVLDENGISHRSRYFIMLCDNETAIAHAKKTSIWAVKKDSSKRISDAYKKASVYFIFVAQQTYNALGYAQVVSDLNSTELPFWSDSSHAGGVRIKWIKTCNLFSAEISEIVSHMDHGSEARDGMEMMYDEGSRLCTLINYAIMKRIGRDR
# Target: T1, Mmi1 YTH domain (longer construct)
# Test: ITC
binder,measurement,value
AUUAAACA (ssRNA) [DSR 8-mer],binding result,binds
